# Laboratory results as given in paper PMC9482650, “Quantitative fragmentomics allow affinity mapping of interactomes” (Nature Communications, 2022).
# T1: MPDZ_10, O75970
# T1 sequence (O75970 1624-1722, limits assumed, looked up): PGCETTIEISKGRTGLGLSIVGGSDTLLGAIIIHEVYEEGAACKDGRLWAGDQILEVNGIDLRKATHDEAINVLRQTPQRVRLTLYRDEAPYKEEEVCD
# T2: APBA2_2, Q99767
# T2 sequence (Q99767 654-744, limits assumed, looked up): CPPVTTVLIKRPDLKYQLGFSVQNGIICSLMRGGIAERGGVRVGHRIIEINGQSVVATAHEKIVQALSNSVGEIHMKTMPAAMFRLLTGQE
# T3: TX1BP3, O14907
# T3 sequence (O14907 10-122, limits assumed, looked up): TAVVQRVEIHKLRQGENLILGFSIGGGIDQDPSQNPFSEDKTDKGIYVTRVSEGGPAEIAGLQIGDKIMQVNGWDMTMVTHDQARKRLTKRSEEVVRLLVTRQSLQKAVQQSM
# T4: LNX2_2, Q8N448
# T4 sequence (Q8N448 334-432, limits assumed, looked up): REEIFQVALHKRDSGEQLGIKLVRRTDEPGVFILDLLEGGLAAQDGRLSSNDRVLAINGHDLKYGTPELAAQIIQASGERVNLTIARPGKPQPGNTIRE
# T5: PCLO, Q9Y6V0
# T5 sequence (Q9Y6V0 4491-4600, limits assumed, looked up): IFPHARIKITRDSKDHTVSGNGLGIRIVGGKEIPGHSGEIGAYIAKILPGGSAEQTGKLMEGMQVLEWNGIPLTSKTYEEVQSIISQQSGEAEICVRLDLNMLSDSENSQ
# T6: GRIP1_7, Q9Y3R0
# T6 sequence (Q9Y3R0 999-1096, limits assumed, looked up): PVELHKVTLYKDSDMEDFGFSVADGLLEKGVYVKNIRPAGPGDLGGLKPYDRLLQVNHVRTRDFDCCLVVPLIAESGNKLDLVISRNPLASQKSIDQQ
# T7: RADIL, Q96JH8
# T7 sequence (Q96JH8 971-1071, limits assumed, looked up): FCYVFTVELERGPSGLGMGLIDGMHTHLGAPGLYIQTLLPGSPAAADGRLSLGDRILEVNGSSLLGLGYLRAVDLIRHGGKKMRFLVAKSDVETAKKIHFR
# T8: LIN7A, O14910
# T8 sequence (O14910 103-200, limits assumed, looked up): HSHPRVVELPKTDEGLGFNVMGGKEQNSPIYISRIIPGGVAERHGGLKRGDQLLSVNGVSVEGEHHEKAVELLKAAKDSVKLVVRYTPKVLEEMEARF
# T9: NHERF3_4, Q5T2W1
# T9 sequence (Q5T2W1 373-468, limits assumed, looked up): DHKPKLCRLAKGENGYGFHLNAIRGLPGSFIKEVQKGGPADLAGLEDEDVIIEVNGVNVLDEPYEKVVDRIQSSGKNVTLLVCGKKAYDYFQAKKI
# T10: MPP2, Q14168
# T10 sequence (Q14168 180-250, limits assumed, looked up): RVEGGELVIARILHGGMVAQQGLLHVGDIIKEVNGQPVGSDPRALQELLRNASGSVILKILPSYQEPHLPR
# T11: DFNB31_2, Q9P202
# T11 sequence (Q9P202 274-371, limits assumed, looked up): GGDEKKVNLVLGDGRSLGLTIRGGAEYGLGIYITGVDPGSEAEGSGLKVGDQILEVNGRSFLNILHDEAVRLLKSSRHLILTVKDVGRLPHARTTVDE
# T12: HTRA4, P83105
# T12 sequence (P83105 378-476, limits assumed, looked up): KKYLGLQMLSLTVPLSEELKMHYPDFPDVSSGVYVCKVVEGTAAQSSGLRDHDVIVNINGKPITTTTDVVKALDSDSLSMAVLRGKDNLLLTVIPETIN
# Molecular target: T1, MPDZ_10, O75970
# Test: holdup assay
# Parameters: key: below the threshold = too weak to quantify, mostly under pKd 3.1 to 4
# Details: plain residues with an end cap or a label only (N-terminal biotin on a linker: ado-ado)
row,pKd,Binder
1,below the threshold,"VYEVPVETKF [SLC26A3, P40879]"

# Molecular target: MAGI1_1, Q96QZ7
# Test: holdup assay
# Parameters: key: below the threshold = too weak to quantify, mostly under pKd 3.1 to 4
# Details: plain residues with an end cap or a label only (N-terminal biotin on a linker: ado-ado)
# MAGI1_1, Q96QZ7, sequence (Q96QZ7 1-106): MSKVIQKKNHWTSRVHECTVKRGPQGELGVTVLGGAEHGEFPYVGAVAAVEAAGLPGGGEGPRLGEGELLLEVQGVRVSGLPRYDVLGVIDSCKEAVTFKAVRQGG
row,pKd,Binder
1,below the threshold,"VYEVPVETKF [SLC26A3, P40879]"

# Molecular target: FRMPD2_2, Q68DX3
# Test: holdup assay
# Parameters: key: below the threshold = too weak to quantify, mostly under pKd 3.1 to 4
# Details: plain residues with an end cap or a label only (N-terminal biotin on a linker: ado-ado)
# FRMPD2_2, Q68DX3, sequence (Q68DX3 944-1038): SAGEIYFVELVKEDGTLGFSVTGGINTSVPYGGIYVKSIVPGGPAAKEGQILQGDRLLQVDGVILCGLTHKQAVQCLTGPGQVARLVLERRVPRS
row,pKd,Binder
1,below the threshold,"VYEVPVETKF [SLC26A3, P40879]"

# Molecular target: T2, APBA2_2, Q99767
# Test: holdup assay
# Parameters: key: below the threshold = too weak to quantify, mostly under pKd 3.1 to 4
# Details: plain residues with an end cap or a label only (N-terminal biotin on a linker: ado-ado)
row,pKd,Binder
1,below the threshold,"VYEVPVETKF [SLC26A3, P40879]"

# Molecular target: T3, TX1BP3, O14907
# Test: holdup assay
# Parameters: key: below the threshold = too weak to quantify, mostly under pKd 3.1 to 4
# Details: plain residues with an end cap or a label only (N-terminal biotin on a linker: ado-ado)
row,pKd,Binder
1,below the threshold,"VYEVPVETKF [SLC26A3, P40879]"

# Molecular target: Inadl_9, Q8NI35
# Test: holdup assay
# Parameters: key: below the threshold = too weak to quantify, mostly under pKd 3.1 to 4
# Details: plain residues with an end cap or a label only (N-terminal biotin on a linker: ado-ado)
# Inadl_9, Q8NI35, sequence (Q8NI35 1530-1615): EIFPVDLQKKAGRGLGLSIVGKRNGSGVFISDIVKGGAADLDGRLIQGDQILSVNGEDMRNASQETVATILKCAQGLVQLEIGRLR
row,pKd,Binder
1,below the threshold,"VYEVPVETKF [SLC26A3, P40879]"

# Molecular target: T4, LNX2_2, Q8N448
# Test: holdup assay
# Parameters: key: below the threshold = too weak to quantify, mostly under pKd 3.1 to 4
# Details: plain residues with an end cap or a label only (N-terminal biotin on a linker: ado-ado)
row,pKd,Binder
1,below the threshold,"VYEVPVETKF [SLC26A3, P40879]"

# Molecular target: T5, PCLO, Q9Y6V0
# Test: holdup assay
# Parameters: key: below the threshold = too weak to quantify, mostly under pKd 3.1 to 4
# Details: plain residues with an end cap or a label only (N-terminal biotin on a linker: ado-ado)
row,pKd,Binder
1,below the threshold,"VYEVPVETKF [SLC26A3, P40879]"

# Molecular target: T6, GRIP1_7, Q9Y3R0
# Test: holdup assay
# Parameters: key: below the threshold = too weak to quantify, mostly under pKd 3.1 to 4
# Details: plain residues with an end cap or a label only (N-terminal biotin on a linker: ado-ado)
row,pKd,Binder
1,below the threshold,"VYEVPVETKF [SLC26A3, P40879]"

# Molecular target: T7, RADIL, Q96JH8
# Test: holdup assay
# Parameters: key: below the threshold = too weak to quantify, mostly under pKd 3.1 to 4
# Details: plain residues with an end cap or a label only (N-terminal biotin on a linker: ado-ado)
row,pKd,Binder
1,below the threshold,"VYEVPVETKF [SLC26A3, P40879]"

# Molecular target: Inadl_5, Q8NI35
# Test: holdup assay
# Parameters: key: below the threshold = too weak to quantify, mostly under pKd 3.1 to 4
# Details: plain residues with an end cap or a label only (N-terminal biotin on a linker: ado-ado)
# Inadl_5, Q8NI35, sequence (Q8NI35 673-780): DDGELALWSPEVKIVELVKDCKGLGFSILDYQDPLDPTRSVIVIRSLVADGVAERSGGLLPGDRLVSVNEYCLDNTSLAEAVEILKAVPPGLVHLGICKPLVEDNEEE
row,pKd,Binder
1,below the threshold,"VYEVPVETKF [SLC26A3, P40879]"

# Molecular target: T8, LIN7A, O14910
# Test: holdup assay
# Parameters: key: below the threshold = too weak to quantify, mostly under pKd 3.1 to 4
# Details: plain residues with an end cap or a label only (N-terminal biotin on a linker: ado-ado)
row,pKd,Binder
1,below the threshold,"VYEVPVETKF [SLC26A3, P40879]"

# Molecular target: FRMPD2_3, Q68DX3
# Test: holdup assay
# Parameters: key: below the threshold = too weak to quantify, mostly under pKd 3.1 to 4
# Details: plain residues with an end cap or a label only (N-terminal biotin on a linker: ado-ado)
# FRMPD2_3, Q68DX3, sequence (Q68DX3 1073-1166): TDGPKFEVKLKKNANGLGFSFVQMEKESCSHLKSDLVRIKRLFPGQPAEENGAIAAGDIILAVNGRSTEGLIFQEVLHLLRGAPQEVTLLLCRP
row,pKd,Binder
1,3.52,"VYEVPVETKF [SLC26A3, P40879]"

# Molecular target: T9, NHERF3_4, Q5T2W1
# Test: holdup assay
# Parameters: key: below the threshold = too weak to quantify, mostly under pKd 3.1 to 4
# Details: plain residues with an end cap or a label only (N-terminal biotin on a linker: ado-ado)
row,pKd,Binder
1,4.15,"VYEVPVETKF [SLC26A3, P40879]"

# Molecular target: IL16_3, Q14005
# Test: holdup assay
# Parameters: key: below the threshold = too weak to quantify, mostly under pKd 3.1 to 4
# Details: plain residues with an end cap or a label only (N-terminal biotin on a linker: ado-ado)
# IL16_3, Q14005, sequence (Q14005 1107-1207): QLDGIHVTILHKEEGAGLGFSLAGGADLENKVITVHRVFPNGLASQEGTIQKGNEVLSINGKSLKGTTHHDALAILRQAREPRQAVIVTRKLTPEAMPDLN
row,pKd,Binder
1,below the threshold,"VYEVPVETKF [SLC26A3, P40879]"

# Molecular target: T10, MPP2, Q14168
# Test: holdup assay
# Parameters: key: below the threshold = too weak to quantify, mostly under pKd 3.1 to 4
# Details: plain residues with an end cap or a label only (N-terminal biotin on a linker: ado-ado)
row,pKd,Binder
1,below the threshold,"VYEVPVETKF [SLC26A3, P40879]"

# Molecular target: TJP2_1, Q9UDY2
# Test: holdup assay
# Parameters: key: below the threshold = too weak to quantify, mostly under pKd 3.1 to 4
# Details: plain residues with an end cap or a label only (N-terminal biotin on a linker: ado-ado)
# TJP2_1, Q9UDY2, sequence (Q9UDY2 24-128): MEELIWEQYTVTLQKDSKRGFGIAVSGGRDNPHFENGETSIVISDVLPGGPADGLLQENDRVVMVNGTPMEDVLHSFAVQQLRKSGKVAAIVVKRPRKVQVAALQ
row,pKd,Binder
1,4.02,"VYEVPVETKF [SLC26A3, P40879]"

# Molecular target: T11, DFNB31_2, Q9P202
# Test: holdup assay
# Parameters: key: below the threshold = too weak to quantify, mostly under pKd 3.1 to 4
# Details: plain residues with an end cap or a label only (N-terminal biotin on a linker: ado-ado)
row,pKd,Binder
1,below the threshold,"VYEVPVETKF [SLC26A3, P40879]"

# Molecular target: T12, HTRA4, P83105
# Test: holdup assay
# Parameters: key: below the threshold = too weak to quantify, mostly under pKd 3.1 to 4
# Details: plain residues with an end cap or a label only (N-terminal biotin on a linker: ado-ado)
row,pKd,Binder
1,below the threshold,"VYEVPVETKF [SLC26A3, P40879]"

# Molecular target: Inadl_8, Q8NI35
# Test: holdup assay
# Parameters: key: below the threshold = too weak to quantify, mostly under pKd 3.1 to 4
# Details: plain residues with an end cap or a label only (N-terminal biotin on a linker: ado-ado)
# Inadl_8, Q8NI35, sequence (Q8NI35 1425-1530): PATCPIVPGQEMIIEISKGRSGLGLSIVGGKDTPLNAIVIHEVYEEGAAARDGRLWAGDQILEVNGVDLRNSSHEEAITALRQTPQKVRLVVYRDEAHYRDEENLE
row,pKd,Binder
1,below the threshold,"VYEVPVETKF [SLC26A3, P40879]"

# Molecular target: TJP1_2, Q07157
# Test: holdup assay
# Parameters: key: below the threshold = too weak to quantify, mostly under pKd 3.1 to 4
# Details: plain residues with an end cap or a label only (N-terminal biotin on a linker: ado-ado)
# TJP1_2, Q07157, sequence (Q07157 181-274): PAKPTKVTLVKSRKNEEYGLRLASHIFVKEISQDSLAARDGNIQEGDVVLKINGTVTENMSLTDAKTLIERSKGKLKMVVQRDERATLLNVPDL
row,pKd,Binder
1,below the threshold,"VYEVPVETKF [SLC26A3, P40879]"

# Molecular target: Inadl_10, Q8NI35
# Test: holdup assay
# Parameters: key: below the threshold = too weak to quantify, mostly under pKd 3.1 to 4
# Details: plain residues with an end cap or a label only (N-terminal biotin on a linker: ado-ado)
# Inadl_10, Q8NI35, sequence (Q8NI35 1673-1763): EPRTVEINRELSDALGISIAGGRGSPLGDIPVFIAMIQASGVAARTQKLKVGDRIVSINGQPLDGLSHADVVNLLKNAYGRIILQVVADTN
row,pKd,Binder
1,below the threshold,"VYEVPVETKF [SLC26A3, P40879]"

# Molecular target: MAGI3_2, Q5TCQ9
# Test: holdup assay
# Parameters: key: below the threshold = too weak to quantify, mostly under pKd 3.1 to 4
# Details: plain residues with an end cap or a label only (N-terminal biotin on a linker: ado-ado)
# MAGI3_2, Q5TCQ9, sequence (Q5TCQ9 398-503): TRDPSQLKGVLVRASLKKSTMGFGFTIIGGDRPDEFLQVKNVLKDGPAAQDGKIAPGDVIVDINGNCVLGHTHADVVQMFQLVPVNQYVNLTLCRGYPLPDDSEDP
row,pKd,Binder
1,below the threshold,"VYEVPVETKF [SLC26A3, P40879]"

# Molecular target: ARHGEF12, Q9NZN5-2
# Test: holdup assay
# Parameters: key: below the threshold = too weak to quantify, mostly under pKd 3.1 to 4
# Details: plain residues with an end cap or a label only (N-terminal biotin on a linker: ado-ado)
# ARHGEF12, Q9NZN5-2, sequence (Q9NZN5 other isoform, or with tags, fused parts or gaps): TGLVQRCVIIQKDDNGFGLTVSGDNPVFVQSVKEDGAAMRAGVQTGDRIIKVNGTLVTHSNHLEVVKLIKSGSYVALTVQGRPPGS
row,pKd,Binder
1,below the threshold,"VYEVPVETKF [SLC26A3, P40879]"

# Molecular target: MAGI1_2, Q96QZ7
# Test: holdup assay
# Parameters: key: below the threshold = too weak to quantify, mostly under pKd 3.1 to 4
# Details: plain residues with an end cap or a label only (N-terminal biotin on a linker: ado-ado)
# MAGI1_2, Q96QZ7, sequence (Q96QZ7 456-580): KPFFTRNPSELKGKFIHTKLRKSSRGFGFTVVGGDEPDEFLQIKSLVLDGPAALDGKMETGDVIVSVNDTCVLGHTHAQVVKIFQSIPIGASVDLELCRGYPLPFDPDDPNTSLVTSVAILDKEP
row,pKd,Binder
1,below the threshold,"VYEVPVETKF [SLC26A3, P40879]"

# Molecular target: LNX1_3, Q8TBB1
# Test: holdup assay
# Parameters: key: below the threshold = too weak to quantify, mostly under pKd 3.1 to 4
# Details: plain residues with an end cap or a label only (N-terminal biotin on a linker: ado-ado)
# LNX1_3, Q8TBB1, sequence (Q8TBB1 500-596): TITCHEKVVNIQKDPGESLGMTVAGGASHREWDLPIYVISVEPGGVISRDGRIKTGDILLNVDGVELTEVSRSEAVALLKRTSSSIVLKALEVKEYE
row,pKd,Binder
1,below the threshold,"VYEVPVETKF [SLC26A3, P40879]"
